B1: Pistol ribozyme (parent)
chain: GGGUCGUUGUUCCAUAAUCGCGUGGAUAUGGCACGCAAGUUUCUACCGGGCACCGUAAAUGUCCGACUGGAGCCGUUCGGGCGGCUAUAAACAGACCUCAGGCCCGAAGCGUGGCGGCACCUGCCGCCGGUGGUAAAAAAGAUCGGAAGAGCACACGUCU

Variants of: B1
Experiment: aptazyme ON/OFF ratio, guanine; higher = stronger switching; co-transcriptional cleavage with and without guanine

Row | Variant | aptazyme ON/OFF ratio
1 | U7A U8G G9C U10C U11G C13A | 1.25
2 | U7A U8G G9C U10C U11G C13G | 1.26
3 | U7A U8G G9C U11C C12A C13A | 1.17
4 | U7A U8G G9C U11C C12A C13G | 1.18
5 | U7A U8G G9C U11C C12A C13U | 1.66
6 | U7A U8G G9A U11A C12G C13U | 1.25
7 | U7A U8G G9A U11A C12G C13G | 1.33
8 | U7A U8G G9A U11A C12G C13A | 1.19
9 | U7A U8G G9C U11G C12U | 1.43
10 | U7A U8G G9C U11G C12G | 1.66
11 | U7A U8G G9C U11G C12A | 1.67
12 | U7A U8G G9A U11G C13U | 1.4
13 | U7A U8G G9A U11G C13G | 1.16
14 | U7A U8G G9A U11G C13A | 1.39
15 | U7A U8G G9A U10G U11G C12G C13A | 0.971
16 | U7A U8G G9A U10G U11G C12G C13U | 1.53
17 | U7A U8G G9A U10G U11G C12G C13G | 1.68
18 | U7A U8G G9U U10A C12A | 1.45
19 | U7A U8G G9C U10G C12U C13U | 1.38
20 | U7A U8G G9C U10G C12U C13G | 1.23
21 | U7A U8G G9C U10G C12U C13A | 1.48
22 | U7A U8G G9C U10A C12A C13U | 1.32
23 | U7A U8G G9C U10A C12A C13G | 1.26
24 | U7A U8G G9C U10A C12A C13A | 1.25

Row | Variant | aptazyme ON/OFF ratio
25 | U7A U8G G9C U11G C12A C13A | 1.29
26 | U7A U8G G9C U11G C12A C13G | 1.26
27 | U7A U8G G9C U11G C12A C13U | 1.28
28 | U7A U8G G9A U11A C13A | 1.24
29 | U7A U8G G9A U11A C13G | 1.21
30 | U7A U8G G9A U11A C13U | 1.55
31 | U7A U8G G9A U11C C13G | 1.09
32 | U7A U8G G9A U11C C13U | 1.2
33 | U7A U8G G9A U11C C13A | 1.12
34 | U7A U8G G9A U11A C12A C13A | 1.39
35 | U7A U8G G9A U11A C12A C13U | 1.16
36 | U7A U8G G9A U11A C12A C13G | 1.21
37 | U7A U8G G9C U10A U11C C13A | 1.04
38 | U7A U8G G9C U10A U11C C13G | 1.04
39 | U7A U8G G9C U10A U11C C13U | 1.04
40 | U7A U8G G9C U10A U11C C12A C13G | 1.28
41 | U7A U8G G9C U10A U11C C12A C13A | 1.17
42 | U7A U8G G9C U10A U11C C12A C13U | 1.5
43 | U7A U8G G9C U10C U11G C12G C13U | 1.09
44 | U7A U8G G9C U10C U11G C12G C13G | 1.18
45 | U7A U8G G9C U10C U11G C12G C13A | 1.18
46 | U7A U8G G9C U10C U11G C12A | 1.06
47 | U7A U8G G9C U10C U11G C12U | 1.03
48 | U7A U8G G9C U10C U11G C12G | 1.16

Row | Variant | aptazyme ON/OFF ratio
49 | U7A U8G G9C U10A U11A C12U | 1.44
50 | U7A U8G G9C U10A U11A C12A | 1.5
51 | U7A U8G G9C U10A U11A C12G | 1.36
52 | U7A U8G G9U C12U C13G | 1.17
53 | U7A U8G G9U C12U C13U | 1.26
54 | U7A U8G G9U C12U C13A | 1.64
55 | U7A U8G G9C U10A U11G C12U C13G | 1.26
56 | U7A U8G G9C U10A U11G C12U C13A | 1.21
57 | U7A U8G G9C U10A U11G C12U C13U | 1.35
58 | U7A U8G G9C U10C U11C C13G | 1.02
59 | U7A U8G G9C U10C U11C C13A | 0.995
60 | U7A U8G G9C U10C U11C C13U | 1.04
61 | U7A U8G G9C | 1.97
62 | U7A U8G G9U | 3.18
63 | U7A U8G G9C U10G U11G | 1.25
64 | U7A U8G G9C U10G U11A | 1.07
65 | U7A U8G G9C U10G U11C | 1.04
66 | U7A U8G G9C U10C U11A C13A | 1.16
67 | U7A U8G G9C U10C U11A C13G | 1.22
68 | U7A U8G G9C U10C U11A C13U | 1.22
69 | U7A U8G G9C U10C U11A C12G | 1.23
70 | U7A U8G G9C U10C U11A C12A | 1.21
71 | U7A U8G G9C U10C U11A C12U | 1.13
72 | U7A U8G G9A U10G U11G C13G | 1.42

Row | Variant | aptazyme ON/OFF ratio
73 | U7A U8G G9A U10G U11G C13U | 1.22
74 | U7A U8G G9A U10G U11G C13A | 1.06
75 | U7A U8G G9C U10C C13U | 1.28
76 | U7A U8G G9C U10C C13A | 1.09
77 | U7A U8G G9C U10C C13G | 1.1
78 | U7A U8G G9C U10G C12A | 1.27
79 | U7A U8G G9C U10G C12G | 1.15
80 | U7A U8G G9C U10G C12U | 1.44
81 | U7A U8G G9C U11G C12G C13G | 1.18
82 | U7A U8G G9C U11G C12G C13U | 1.22
83 | U7A U8G G9C U11G C12G C13A | 1.1
84 | U7A U8G G9A U11C C12U | 1.39
85 | U7A U8G G9A U11C C12G | 1.56
86 | U7A U8G G9A U11C C12A | 1.46
87 | U7A U8G G9C U10C U11A C12U C13G | 1.18
88 | U7A U8G G9C U10C U11A C12U C13A | 1.13
89 | U7A U8G G9C U10C U11A C12U C13U | 1.2
90 | U7A U8G G9C U10A U11G C12U | 1.08
91 | U7A U8G G9C U10A U11G C12G | 1.35
92 | U7A U8G G9C U10A U11G C12A | 1.07
93 | U7A U8G G9C U10A U11C C12U C13A | 1.26
94 | U7A U8G G9C U10A U11C C12U C13U | 1.23
95 | U7A U8G G9C U10A U11C C12U C13G | 1.59
96 | U7A U8G G9C U11A C12A | 1.73

Row | Variant | aptazyme ON/OFF ratio
97 | U7A U8G G9C U11A C12U | 1.53
98 | U7A U8G G9C U11A C12G | 1.34
99 | U7A U8G G9C U10A C13A | 1.19
100 | U7A U8G G9C U10A C13U | 1.3
101 | U7A U8G G9C U10A C13G | 1.15
102 | U7A U8G G9C U10G U11A C12U C13A | 1.33
103 | U7A U8G G9C U10G U11A C12U C13G | 1.23
104 | U7A U8G G9C U10G U11A C12U C13U | 1.42
105 | U7A U8G G9C U10G U11A C12A C13U | 1.47
106 | U7A U8G G9C U10G U11A C12A C13A | 1.16
107 | U7A U8G G9C U10G U11A C12A C13G | 1.38
108 | U7A U8G G9A U10G U11G C12U C13G | 1
109 | U7A U8G G9A U10G U11G C12U C13U | 1.22
110 | U7A U8G G9A U10G U11G C12U C13A | 1.33
111 | U7A U8G G9A U11G C12U | 1.36
112 | U7A U8G G9A U11G C12G | 1.32
113 | U7A U8G G9A U11G C12A | 1.14
114 | U7A U8G G9C U10G U11C C12U | 1.07
115 | U7A U8G G9C U10G U11C C12A | 1.47
116 | U7A U8G G9C U10G U11C C12G | 1.3
117 | U7A U8G G9C U10A U11G C12A C13G | 1.18
118 | U7A U8G G9C U10A U11G C12A C13A | 1.2
119 | U7A U8G G9C U10A U11G C12A C13U | 1.16
120 | U7A U8G G9C U10A U11A C12U C13U | 1.57

Row | Variant | aptazyme ON/OFF ratio
121 | U7A U8G G9C U10A U11A C12U C13A | 1.42
122 | U7A U8G G9C U10A U11A C12U C13G | 1.34
123 | U7A U8G G9C C12A C13G | 1.16
124 | U7A U8G G9C C12A C13A | 1.46
125 | U7A U8G G9C C12A C13U | 1.29
126 | U7A U8G G9C U10G U11G C13A | 1.19
127 | U7A U8G G9C U10G U11G C13U | 1.31
128 | U7A U8G G9C U10G U11G C13G | 1.21
129 | U7A U8G G9A U11G C12U C13G | 1.44
130 | U7A U8G G9A U11G C12U C13U | 1.5
131 | U7A U8G G9A U11G C12U C13A | 1.12
132 | U7A U8G G9C C13A | 1.47
133 | U7A U8G G9C C13U | 1.42
134 | U7A U8G G9C C13G | 1.11
135 | U7A U8G G9C U10A C12G C13U | 1.28
136 | U7A U8G G9C U10A C12G C13A | 1.25
137 | U7A U8G G9C U10A C12G C13G | 1.28
138 | U7A U8G G9C U11C C12U C13A | 1.41
139 | U7A U8G G9C U11C C12U C13G | 1.38
140 | U7A U8G G9C U11C C12U C13U | 1.22
141 | U7A U8G G9C U10C U11A C12G C13U | 1.17
142 | U7A U8G G9C U10C U11A C12G C13G | 1.21
143 | U7A U8G G9C U10C U11A C12G C13A | 1.23
144 | U7A U8G G9C U10A U11A C12G C13U | 1.38

Row | Variant | aptazyme ON/OFF ratio
145 | U7A U8G G9C U10A U11A C12G C13A | 1.15
146 | U7A U8G G9C U10A U11A C12G C13G | 1.36
147 | U7A U8G G9C U11G C12U C13U | 1.4
148 | U7A U8G G9C U11G C12U C13A | 1.44
149 | U7A U8G G9C U11G C12U C13G | 1.41
150 | U7A U8G G9C U10G U11G C12A C13U | 1.22
151 | U7A U8G G9C U10G U11G C12A C13G | 1.16
152 | U7A U8G G9C U10G U11G C12A C13A | 1.18
153 | U7A U8G G9A U11A | 1.7
154 | U7A U8G G9A U11G | 1.64
155 | U7A U8G G9A U11C | 1.33
156 | U7A U8G G9A U11G C12G C13G | 1.08
157 | U7A U8G G9A U11G C12G C13U | 1.52
158 | U7A U8G G9A U11G C12G C13A | 1.1
159 | U7A U8G G9C U10C U11C C12G | 1.05
160 | U7A U8G G9C U10C U11C C12A | 1.06
161 | U7A U8G G9C U10C U11C C12U | 0.975
162 | U7A U8G G9U C13U | 1.96
163 | U7A U8G G9U C13A | 1.25
164 | U7A U8G G9U C13G | 1.14
165 | U7A U8G G9U C12G C13A | 1.22
166 | U7A U8G G9U C12G C13U | 1.33
167 | U7A U8G G9U C12G C13G | 1.4

— the RNAGym collection of RNA variant scans (doi:10.1021/acssynbio.7b00057)
